This is an account of results in patent publication US20220289857A1 (Kyowa Kirin, published 2022).

Positions count from the first letter of the chain named. Numbers in names are those of the source. Where “and” joins values, the source holds several entries; their conditions need not be identical. Equal values may be shown once.

Assay [1] concerns the target T1, untagged human Fn14 extracellular domain (aa 28-75), SUMO-cleaved (human, UniProt Q9NP84 28-75).
T1 construct: Electron density seen for residues 32-68; also called Fn14 (crystallization)
Nature of the assay: co-crystal structure. How it is done:
Purified Fn14 and His-tagged 41c Fab or R35B9 Fab proteins were mixed in a 1:1 stoichiometric ratio, concentrated to 1 mg/mL and then subjected to crystallization. Initial crystallization trials were performed in a 96-well format using a nano-liter dispensing liquid handling robot (Phoenix, Art Robbins Ltd.) while mixing 0.15 μL protein with 0.15 μL precipitant from different commercially available crystallization screens (JCSG core+and JCSG core 1 screens). Over 200 crystallization conditions were tested using the sitting drop vapor diffusion method and crystallization trails were carried out at both 4° C. and 22° C. Optimization of all crystallization conditions was performed manually by both hanging drop and sitting drop methods. Crystals were obtained in various conditions containing PEG 3350 or PEG 6000 as the common precipitant and were grown over 3 days. […]
The structure had good geometry with 4 residues (0.89%) as outliers and 97.6% residues in favored region of the Ramachandran plot. Correspondingly, the structure of Fn14 -R35B9-His Fab complex was determined by molecular replacement using the phase information obtained from Fn14-41c-His Fab complex and the structure was refined to 2.3 Å with residual factors R/Rfree=20.9/23.3.

Assay [2] deals with T2, human Fn14 (full length) on cells (human, UniProt Q9NP84 28-129).
T2 sequence: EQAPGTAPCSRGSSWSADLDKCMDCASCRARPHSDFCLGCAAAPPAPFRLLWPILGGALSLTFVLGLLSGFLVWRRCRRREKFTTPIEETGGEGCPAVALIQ
Nature of the assay: cell-based or functional assay.

Assay [3] deals with T3, human Fn14 Subdomain 2 peptide (AA51-70), biotinylated (human, added C-terminal Lys carries Ahx-biotin; C-terminal amide).
T3 peptide: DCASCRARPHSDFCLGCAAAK
Nature of the assay: biolayer interferometry (ForteBio Octet); biotinylated peptide on streptavidin biosensor, response at 120 s of association. How it is done:
(§1) A ForteBio Octet Qke instrument (ForteBio) was used to measure the ability of purified antibodies to bind Fn14 peptides. The assays were performed at 30° C. in 96-well half area plates (Grenier, cat# 675076), with agitation set to 1000 rpm, in kinetic buffer (provided in the assay kit) to minimize nonspecific interactions. Biosensor tips were equilibrated in kinetic buffer for 600 s prior to use. Soluble biotinylated peptides (20 μg/ml, Subdomain 1 (AA30-50): […]-[K-Ahx-biotin]-amide (SEQ ID NO: 182) and Subdomain 2 (AA51-70): […]-[K-Ahx-biotin]-amide (SEQ ID NO: 183) synthesized by 21′ Century Biochemicals) in kinetic buffer were immobilized on streptavidin-coated biosensors (ForteBio, cat# 18-5020) for 300 seconds. […] Purified antibodies (20 μg/m1) were allowed to bind the immobilized peptides. Association was measured for 300 seconds, using the high sensitivity kinetics setting. To characterize the binding properties of the antibody candidates, the response (nm) at t =120 seconds from the start of the association step was recorded. All values were compared to a control sample (isotype antibody).
In general terms: Biolayer interferometry detects binding as a change in optical thickness at a sensor tip.

Assay [4] addresses T4, human Fn14 Subdomain 1 peptide (AA30-50), biotinylated (human, added C-terminal Lys carries Ahx-biotin; C-terminal amide).
T4 peptide: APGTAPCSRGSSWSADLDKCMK
Kind of assay: biolayer interferometry (ForteBio Octet); biotinylated peptide on streptavidin biosensor, antibody in solution, response at 120 s of association. Here is the method: as §1

Assay [5] has as its target T5, His-SUMO-huFn14 (soluble human Fn14 aa 28-75 with N-terminal 6xHis-SUMO tag) (human).
T5 construct: also called His-SUMO-Fn14; His-SUMO-hFn14
Nature of the assay: SPR Biacore T200; His-SUMO-huFn14 amine-coupled, Fab analyte; 1:1 fit. Here is the method: (§2) In order to kinetically analyze the binding activity of anti-Fn14 mouse antibodies 41c, R35B9, and CRCBT-06-002 to recombinant human and cynomolgus macaque Fn14 proteins, the binding activity was measured by surface plasmon resonance method (SPR). Antibodies were generated as described herein. All of the following procedures were carried out using a Biacore T200 (GE Healthcare Bio-Sciences). To determine antibody affinity to human Fn14, recombinant human His-SUMO-Fn14 was immobilized on a CMS sensor chip (GE Healthcare Bio-Sciences) by amine coupling chemistry. In particular, the kinetic assay was carried out by immobilizing on the chip approximately 20-30 RU of recombinant protein, in order to achieve a low protein immobilization level. To determine antibody affinity to cynomolgus macaque Fn14, polyclonal anti-GST antibodies were immobilized on a CMS sensor chip (GE Healthcare Bio-Sciences) by amine coupling chemistry. In particular, after immobilizing approximately 1500 RU of anti-GST capture antibody onto the chip, cynomolgus macaque GST-Fn14 in culture supernatant was allowed to run for 5 minutes at a flow rate of 30 μL/min in order to achieve a low capture level of approximately 20 RU. Thereafter, antibody Fab fragments, serially diluted from a high concentration, were allowed to run at a flow rate of 30 μL/min onto the chip for 300 seconds. The dissociation time was 1800 seconds and the binding curves were measured at 25° C. Regeneration was performed with 10 mM glycine pH 1.5 for 30 seconds. The raw data were double referenced by subtraction of the signals from a reference flow cell without immobilized ligand and a buffer blank.
(§3) A sensorgram corresponding to each concentration was obtained (see FIG. 5). Analysis was carried out using a 1:1 Langmuir fit model using the analysis software attached to the apparatus, Biacore T200 Evaluation software (Biacore), thereby calculating an association rate constant ka [M-1s-1] and a dissociation rate constant kd [s-1] for the recombinant Fn14 proteins. […] Cross-reactivity of anti-Fn14 mouse antibodies to recombinant mouse GST-Fn14 protein was measured as described above.
Background: In SPR one partner is held on a chip, and binding of the other changes the refractive index at the surface.

Assay [6] deals with T6, cynomolgus macaque Fn14-GST (cynomolgus macaque (Macaca fascicularis)).
T6 construct: Used from culture supernatant, captured by anti-GST; also called cyno Fn14-GST; CynoFn14
Nature of the assay: SPR Biacore T200; cyno Fn14-GST captured by anti-GST, Fab analyte; 1:1 fit. Here is the method:
as §2, §3

In assay [7] the target is T5, His-SUMO-huFn14 (soluble human Fn14 aa …). Nature of the assay: SPR Biacore T200; His-SUMO-huFn14 amine-coupled, Fab analyte; average of two runs. How it is done:
(§4) In order to kinetically analyze the binding activity of anti-Fn14 mouse antibodies 41c, R35B9, and CRCBT-06-002 to recombinant human and cynomolgus macaque Fn14 proteins, the binding activity was measured by surface plasmon resonance method (SPR). Antibodies were generated as described herein. All of the following procedures were carried out using a Biacore T200 (GE Healthcare Bio-Sciences). To determine antibody affinity to human Fn14, recombinant human His-SUMO-Fn14 was immobilized on a CMS sensor chip (GE Healthcare Bio-Sciences) by amine coupling chemistry. In particular, the kinetic assay was carried out by immobilizing on the chip approximately 20-30 RU of recombinant protein, in order to achieve a low protein immobilization level. To determine antibody affinity to cynomolgus macaque Fn14, polyclonal anti-GST antibodies were immobilized on a CMS sensor chip (GE Healthcare Bio-Sciences) by amine coupling chemistry. […] The dissociation time was 1800 seconds and the binding curves were measured at 25° C. […]
(§5) A sensorgram corresponding to each concentration was obtained (see FIG. 5). […] Cross-reactivity of anti-Fn14 mouse antibodies to recombinant mouse GST-Fn14 protein was measured as described above.

Assay [8] has as its target T6, cynomolgus macaque Fn14-GST. Nature of the assay: SPR Biacore T200; cyno Fn14-GST captured by anti-GST, Fab analyte; average of two runs. Here is the method: as §4, §5
The target in a further assay is T7, mouse Fn14-GST (mouse).
T7 construct: also called mouse GST-Fn14
Nature of the assay: SPR (Biacore T200); mouse Fn14-GST captured by immobilized anti-GST antibody, analyte at 10 nM. Here is the method:
as §4, §5

Broadly, the Kd is the constant that tells how readily two partners part at equilibrium. High values mean weaker binding, low ones tighter binding. By koff is commonly meant a measure of how fast the partners let go of each other. Low readings indicate slow dissociation, high ones fast dissociation. Usually kon stands for the second-order rate constant of association. A high value points to fast association.

T6 sequence (chain, as listed by the source): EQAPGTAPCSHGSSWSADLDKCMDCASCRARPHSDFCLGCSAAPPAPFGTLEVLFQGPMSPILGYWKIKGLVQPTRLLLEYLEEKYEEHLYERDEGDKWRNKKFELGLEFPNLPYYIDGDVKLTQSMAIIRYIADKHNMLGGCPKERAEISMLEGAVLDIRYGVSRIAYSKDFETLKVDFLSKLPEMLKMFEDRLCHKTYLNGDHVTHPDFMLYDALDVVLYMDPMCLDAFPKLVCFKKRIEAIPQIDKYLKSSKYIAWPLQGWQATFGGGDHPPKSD
T5 sequence (chain, as listed by the source limits assumed): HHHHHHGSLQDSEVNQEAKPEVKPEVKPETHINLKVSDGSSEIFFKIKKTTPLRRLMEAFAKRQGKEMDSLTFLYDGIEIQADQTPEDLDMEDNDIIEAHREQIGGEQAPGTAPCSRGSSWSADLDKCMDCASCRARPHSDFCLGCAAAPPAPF

B1: 41c-His Fab (recombinant, bacterial, for crystallization) (Fab, V domains shown)
VH: EVQLQQSGPELVKPGASVKMSCKASGYTFTDYNMHWVKQSHGKSLEWIGYINPNNGGTNYNQKFKGKATLTVNKSSRSAYMEFRSLTSEDSAVYYCASSGWFTYWGQGTLVTVSA
VL: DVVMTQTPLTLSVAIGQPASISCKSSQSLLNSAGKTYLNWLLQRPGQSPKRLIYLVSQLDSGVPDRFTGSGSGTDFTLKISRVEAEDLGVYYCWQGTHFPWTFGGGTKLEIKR
notes: Two extra N-terminal residues on each chain (Leu-Glu heavy, Ser-Arg light); C-terminal linker and 6xHis on the heavy chain; also called His-tagged 41c Fab
For B1, the binding result in assay [1] is “binds”.

B2: R35B9-His Fab (recombinant, bacterial, for crystallization) (Fab, V domains shown)
VH: B1 VH with T28I, T30Q, Y50S, N54R, G57W
VL: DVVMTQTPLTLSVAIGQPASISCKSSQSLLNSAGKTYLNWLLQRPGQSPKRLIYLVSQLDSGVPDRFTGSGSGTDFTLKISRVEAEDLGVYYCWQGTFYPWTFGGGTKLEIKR
notes: also called R35B9 Fab-His
With B2, the binding result in assay [1] is “binds”.

B3: R35B9 mouse IgG1(D265A), kappa antibody (A402/A403) (antibody)
heavy: EVQLQQSGPELVKPGASVKMSCKASGYIFQDYNMHWVKQSHGKSLEWIGSINPRNGWTNYNQKFKGKATLTVNKSSRSAYMEFRSLTSEDSAVYYCASSGWFTYWGQGTLVTVSAAKTTPPSVYPLAPGSAAQTNSMVTLGCLVKGYFPEPVTVTWNSGSLSSGVHTFPAVLESDLYTLSSSVTVPSSPRPSETVTCNVAHPASSTKVDKKIVPRDCGCKPCICTVPEVSSVFIFPPKPKDVLTITLTPKVTCVVVAISKDDPEVQFSWFVDDVEVHTAQTQPREEQFNSTFRSVSELPIMHQDWLNGKEFKCRVNSAAFPAPIEKTISKTKGRPKAPQVYTIPPPKEQMAKDKVSLTCMITDFFPEDITVEWQWNGQPAENYKNTQPIMNTNGSYFVYSKLNVQKSNWEAGNTFTCSVLHEGLHNHHTEKSLSHSPGK
light: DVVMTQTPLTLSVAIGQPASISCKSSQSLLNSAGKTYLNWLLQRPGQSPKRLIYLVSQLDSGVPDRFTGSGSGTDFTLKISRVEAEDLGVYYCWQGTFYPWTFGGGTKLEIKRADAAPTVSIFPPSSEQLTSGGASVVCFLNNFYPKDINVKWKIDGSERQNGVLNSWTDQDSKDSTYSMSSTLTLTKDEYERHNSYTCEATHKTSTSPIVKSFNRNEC
Take B3: the “ICAM-1 MFI on HRMC, 250 ng/mL rhTWEAK, mAb 0.1 µg/mL” value in [2] was 5830 MFI. For the same molecule, the binding result was “no binding (tested: 20 µg/mL)” in [3] and “binds” in assay [4].

B4: 41c Fab (enzymatic digest of the mouse IgG1 antibody) (Fab, V domains shown, not shown: a dimerising Fc or GST)
VH: B1 VH
VL: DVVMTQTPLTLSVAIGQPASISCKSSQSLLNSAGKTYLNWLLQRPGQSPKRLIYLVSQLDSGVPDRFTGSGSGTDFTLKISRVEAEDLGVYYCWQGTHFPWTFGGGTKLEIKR
notes: Made with the mouse IgG1 Fab and F(ab')2 preparation kit; also called 41C Fab LM101416
Turning to B4, the Kd in assay [5] was 2.15 nM and 1.81 nM; in assay [6], 3.48 nM and 3.28 nM; in assay [7], 1.98 nM; in assay [8], 3.38 nM. Further, the koff is 0.00242 s⁻¹ and 0.00266 s⁻¹ in assay [5]; 0.00153 s⁻¹ and 0.00223 s⁻¹ in assay [6]. For the same molecule, the on-rate (kon) in assay [5] is 1.13e+06 M⁻¹ s⁻¹ and 1.47e+06 M⁻¹ s⁻¹; in assay [6], 441000 M⁻¹ s⁻¹ and 678000 M⁻¹ s⁻¹. Moreover, in the assay with mouse Fn14-GST, the binding result is given as “binds”.
